Measurements reported in patent publication US20210246204A1 (Alector, published 2021).
Substitutions are numbered along the chain they refer to.

B1: S7AB-H8.17 (antibody, V domains shown)
VH: QVQLVQSGAEVKKPGASVKVSCKASGYAFTMAWMNWVRQAPGQGLEWIGRIFPGYGHTNYAQKFQGRATLTEDTSTSTAYMELSSLRSEDTAVYYCARDYSDYYFDYWGQGTLVTVSS
VL: DIQMTQSPSSLSASVGDRVTITCRGSQDTNTYLNWYQQKPGKAPKLLIYYTSRLHSGVPSRFSGSGSGTDYTLTISSLQPEDFATYYCQQGNTLPWTFGQGTKLEIK
B2: S7AB-H8.29 (antibody, V domains shown)
VH: B1 VH with M31A, Y55L
VL: B1 VL with G25A, T29A, T93L
B3: S7AB-H8.19 (antibody, V domains shown)
VH: B1 VH with M31A, Y55L
VL: B1 VL
B4: S7AB-H8.18 (antibody, V domains shown)
VH: B1 VH with M31G, A32Y, Y55L
VL: B1 VL
B5: S7AB-H8.23 (antibody, V domains shown)
VH: B1 VH with M31G, A32Y, Y55L
VL: B1 VL with G25A, Q27E, T29I, N92G
B6: S7AB-H8.20 (antibody, V domains shown)
VH: B1 VH with M31E
VL: B1 VL
B7: S7AB-H8.27 (antibody, V domains shown)
VH: B1 VH
VL: B1 VL with G25A, T29A, T93L
B8: S7AB-H8.25 (antibody, V domains shown)
VH: B1 VH with M31E
VL: B1 VL with G25A, Q27E, T29I, N92G
B9: S7AB-H8.22 (antibody, V domains shown)
VH: B1 VH
VL: B1 VL with G25A, Q27E, T29I, N92G
B10: S7AB-H8.26 (antibody, V domains shown)
VH: B1 VH with M31E, A32T, Y55L
VL: B1 VL with G25A, T29A, T93L
B11: S7AB-H8.28 (antibody, V domains shown)
VH: B1 VH with M31G, A32Y, Y55L
VL: B1 VL with G25A, T29A, T93L
B12: S7AB-H8.30 (antibody, V domains shown)
VH: B1 VH with M31E
VL: B1 VL with G25A, T29A, T93L
B13: S7AB-H8.21 (antibody, V domains shown)
VH: B1 VH with M31E, A32T, Y55L
VL: B1 VL with G25A, Q27E, T29I, N92G
B14: S7AB-H8.24 (antibody, V domains shown)
VH: B1 VH with M31A, Y55L
VL: B1 VL with G25A, Q27E, T29I, N92G
B15: S7AB-H8.32 (antibody, V domains shown)
VH: B1 VH
VL: B1 VL with T29I, N92G
B16: S7AB-H8.31 (antibody, V domains shown)
VH: B1 VH with M31E, A32T, Y55L
VL: B1 VL with T29I, N92G

Target: T1, histidine-tagged human Siglec-7 (NovoProtein) (human, UniProt Q9Y286 19-353)
T1 construct: Bought protein; also called recombinant human Siglec-7; recombinant Siglec-7; not shown: histidine tag
T1 sequence (Q9Y286 19-353 limits assumed): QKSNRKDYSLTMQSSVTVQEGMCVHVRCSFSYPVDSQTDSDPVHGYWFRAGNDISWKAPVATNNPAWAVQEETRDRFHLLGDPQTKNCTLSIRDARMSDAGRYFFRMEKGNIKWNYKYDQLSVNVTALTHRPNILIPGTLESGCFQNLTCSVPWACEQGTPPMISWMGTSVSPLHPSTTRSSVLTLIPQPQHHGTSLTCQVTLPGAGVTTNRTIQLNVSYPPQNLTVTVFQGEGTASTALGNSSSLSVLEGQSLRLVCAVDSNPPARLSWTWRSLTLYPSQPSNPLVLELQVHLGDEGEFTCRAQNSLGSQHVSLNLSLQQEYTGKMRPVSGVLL
Experiment: BLI, antibody captured
Description: In this assay, the humanized antibodies were compared directly to S7AB. Briefly, the antibodies were captured on anti-human or anti-mouse IgG Fc Biosensors (Pall ForteBio). Varying concentrations (0-100 nM) of histidine-tagged human Siglec-7 (NovoProtein) were then bound to the captured anti-Siglec-7 surface (200 s association time, 900 s dissociation time). Multi-concentration kinetic analysis was performed using a 1:1 interaction model to extract association and dissociation rate constants (kₐ and kd, respectively) for each antibody. Apparent affinity constants (KD) were calculated from the ratio kd/kₐ.
The affinities of S7AB-H8 and variants S7AB-H8.1 through S7AB-H8.45 for human Siglec-7 were measured by BioLayer Interferometry according to the method described in Example 1 above.

With B1 as the binder, how does the Kd read?
Its Kd is 0.814 nM.

What about the “fold improvement over S7AB-H8” value of the same binder?
The value was 1.3 fold.

What about the koff of the same binder?
Its koff is 0.000104 s⁻¹.

And the kon?
Its kon is 128000 M⁻¹ s⁻¹.

For B2, which Kd is on record?
The Kd was 0.263 nM.

And the “fold improvement over S7AB-H8” value?
Its value is 4 fold.

And the koff?
Its koff is 4e-05 s⁻¹.

And the kon?
Its kon is 152000 M⁻¹ s⁻¹.

Which Kd does the source give for B3 here?
Its Kd is 0.898 nM.

What about the “fold improvement over S7AB-H8” value of the same binder?
Its value is 1.2 fold.

And the koff?
The koff was 0.000112 s⁻¹.

And the kon?
The kon was 125000 M⁻¹ s⁻¹.

B4 was tested. Which Kd did it give?
Its Kd is 0.712 nM.

And the “fold improvement over S7AB-H8” value?
Its value is 1.5 fold.

And the koff?
The koff was 0.000142 s⁻¹.

And the kon?
The kon was 199000 M⁻¹ s⁻¹.

With B5 as the binder, how does the Kd read?
The Kd was 0.235 nM.

And the “fold improvement over S7AB-H8” value?
The value was 4.5 fold.

And the koff?
The koff was 5.53e-05 s⁻¹.

And the kon?
The kon was 235000 M⁻¹ s⁻¹.

For B6, which Kd is on record?
The Kd was 1.81 nM.

And the “fold improvement over S7AB-H8” value?
The value was 0.6 fold.

What about the koff of the same binder?
Its koff is 0.000145 s⁻¹.

What about the kon of the same binder?
The kon was 79900 M⁻¹ s⁻¹.

With B7 as the binder, how does the Kd read?
Its Kd is 0.1 nM.

And the “fold improvement over S7AB-H8” value?
The value was 10.5 fold.

What about the koff of the same binder?
Its koff is 1.56e-05 s⁻¹.

What about the kon of the same binder?
Its kon is 156000 M⁻¹ s⁻¹.

B8 was tested. Which Kd did it give?
Its Kd is 0.265 nM.

What about the “fold improvement over S7AB-H8” value of the same binder?
Its value is 4 fold.

And the koff?
Its koff is 2.77e-05 s⁻¹.

What about the kon of the same binder?
The kon was 104000 M⁻¹ s⁻¹.

With B9 as the binder, how does the Kd read?
The Kd was under 0.001 nM.

What about the “fold improvement over S7AB-H8” value of the same binder?
The value was over 1000 fold.

And the koff?
The koff was under 1e-07 s⁻¹.

And the kon?
The kon was 135000 M⁻¹ s⁻¹.

What does the source list for B10?
Kd: 0.397 nM; fold improvement over S7AB-H8: 2.6 fold; koff: 5.9e-05 s⁻¹; kon: 149000 M⁻¹ s⁻¹

Which results are given for B11?
Kd: 0.159 nM; fold improvement over S7AB-H8: 6.6 fold; koff: 3.51e-05 s⁻¹; kon: 221000 M⁻¹ s⁻¹

How did the Kd turn out when B12 was run?
The Kd was 0.395 nM.

What about the “fold improvement over S7AB-H8” value of the same binder?
Its value is 2.7 fold.

And the koff?
Its koff is 4.13e-05 s⁻¹.

And the kon?
The kon was 105000 M⁻¹ s⁻¹.

Which results are given for B13?
Kd: 0.936 nM; fold improvement over S7AB-H8: 1.1 fold; koff: 0.000125 s⁻¹; kon: 133000 M⁻¹ s⁻¹

For B14, which Kd is on record?
The Kd was 0.0368 nM.

What about the “fold improvement over S7AB-H8” value of the same binder?
The value was 28.5 fold.

What about the koff of the same binder?
The koff was 4.81e-06 s⁻¹.

What about the kon of the same binder?
Its kon is 131000 M⁻¹ s⁻¹.

With B15 as the binder, how does the Kd read?
The Kd was 0.356 nM.

What about the “fold improvement over S7AB-H8” value of the same binder?
Its value is 2.9 fold.

And the koff?
The koff was 3.93e-05 s⁻¹.

And the kon?
The kon was 111000 M⁻¹ s⁻¹.

How did the Kd turn out when B16 was run?
Its Kd is 0.742 nM.

What about the “fold improvement over S7AB-H8” value of the same binder?
Its value is 1.4 fold.

And the koff?
Its koff is 0.000107 s⁻¹.

And the kon?
Its kon is 145000 M⁻¹ s⁻¹.

Target: human Siglec-7 on primary human monocyte-derived dendritic cells (human, UniProt Q9Y286 19-467)
Sequence (Q9Y286 19-467): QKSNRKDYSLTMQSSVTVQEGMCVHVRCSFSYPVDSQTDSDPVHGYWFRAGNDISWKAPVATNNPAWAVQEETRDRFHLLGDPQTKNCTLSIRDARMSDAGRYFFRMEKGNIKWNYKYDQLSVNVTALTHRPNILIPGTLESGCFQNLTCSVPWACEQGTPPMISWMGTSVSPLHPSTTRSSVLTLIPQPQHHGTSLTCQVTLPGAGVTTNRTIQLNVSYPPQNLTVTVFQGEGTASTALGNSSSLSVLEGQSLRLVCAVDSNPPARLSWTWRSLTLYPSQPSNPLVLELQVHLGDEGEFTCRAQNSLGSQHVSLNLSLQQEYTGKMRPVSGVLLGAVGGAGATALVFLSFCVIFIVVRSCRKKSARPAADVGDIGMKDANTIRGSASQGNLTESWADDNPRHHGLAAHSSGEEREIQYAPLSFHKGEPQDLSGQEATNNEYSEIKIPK
Experiment: cell-based or functional assay

Which results are given for B1?
Fold increase in potency compared to AB-H8: 2.9 fold; Fold increase in potency compared to Chimeric Ab: 8.8 fold; Maximal downregulation (% Siglec-7 remaining): 8%; Receptor downregulation, (EC50) (pM): 116 pM

With B2 as the binder, how does the “Fold increase in potency compared to AB-H8” value (from here on “Fold increase … to AB-H8”) read?
The value was 6.7 fold.

And the “Fold increase in potency compared to Chimeric Ab” value (shortened to “Fold increase … to Chimeric Ab”)?
Its value is 20 fold.

And the “Maximal downregulation (% Siglec-7 remaining)” value?
The value was 3.7%.

What about the “Receptor downregulation, (EC50) (pM)” value of the same binder?
The value was 51.1 pM.

Which “Fold increase … to AB-H8” value does the source give for B3 here?
Its value is 3.5 fold.

And the “Fold increase … to Chimeric Ab” value?
Its value is 10.5 fold.

And the “Maximal downregulation (% Siglec-7 remaining)” value?
Its value is 6.7%.

And the “Receptor downregulation, (EC50) (pM)” value?
The value was 97.8 pM.

Which results are given for B4?
Fold increase in potency compared to AB-H8: 5 fold; Fold increase in potency compared to Chimeric Ab: 15.2 fold; Maximal downregulation (% Siglec-7 remaining): 18.9%; Receptor downregulation, (EC50) (pM): 67.3 pM

For B5, which “Fold increase … to AB-H8” value is on record?
Its value is 3.8 fold.

And the “Fold increase … to Chimeric Ab” value?
The value was 11.4 fold.

And the “Maximal downregulation (% Siglec-7 remaining)” value?
Its value is 17.2%.

What about the “Receptor downregulation, (EC50) (pM)” value of the same binder?
The value was 90.1 pM.

Which results are given for B6?
Fold increase in potency compared to AB-H8: 1.4 fold; Fold increase in potency compared to Chimeric Ab: 4.2 fold; Maximal downregulation (% Siglec-7 remaining): 10.6%; Receptor downregulation, (EC50) (pM): 245 pM

What does the source list for B7?
Fold increase in potency compared to AB-H8: 3.6 fold; Fold increase in potency compared to Chimeric Ab: 10.9 fold; Maximal downregulation (% Siglec-7 remaining): 2.9%; Receptor downregulation, (EC50) (pM): 93.7 pM

B8 was tested. Which “Fold increase … to AB-H8” value did it give?
The value was 1.8 fold.

And the “Fold increase … to Chimeric Ab” value?
Its value is 5.4 fold.

What about the “Maximal downregulation (% Siglec-7 remaining)” value of the same binder?
The value was 9.2%.

What about the “Receptor downregulation, (EC50) (pM)” value of the same binder?
Its value is 189 pM.

With B9 as the binder, how does the “Fold increase … to AB-H8” value read?
The value was 3.1 fold.

What about the “Fold increase … to Chimeric Ab” value of the same binder?
The value was 9.4 fold.

And the “Maximal downregulation (% Siglec-7 remaining)” value?
Its value is 3.9%.

What about the “Receptor downregulation, (EC50) (pM)” value of the same binder?
Its value is 109 pM.

With B10 as the binder, how does the “Fold increase … to AB-H8” value read?
Its value is 1.9 fold.

And the “Fold increase … to Chimeric Ab” value?
Its value is 5.7 fold.

What about the “Maximal downregulation (% Siglec-7 remaining)” value of the same binder?
Its value is 9.8%.

What about the “Receptor downregulation, (EC50) (pM)” value of the same binder?
Its value is 180 pM.

What does the source list for B11?
Fold increase in potency compared to AB-H8: 4.6 fold; Fold increase in potency compared to Chimeric Ab: 13.7 fold; Maximal downregulation (% Siglec-7 remaining): 17%; Receptor downregulation, (EC50) (pM): 74.6 pM

B12 was tested. Which “Fold increase … to AB-H8” value did it give?
Its value is 2.7 fold.

What about the “Fold increase … to Chimeric Ab” value of the same binder?
Its value is 8.2 fold.

What about the “Maximal downregulation (% Siglec-7 remaining)” value of the same binder?
Its value is 8.2%.

And the “Receptor downregulation, (EC50) (pM)” value?
The value was 126 pM.

For B13, which “Fold increase … to AB-H8” value is on record?
Its value is 2.2 fold.

What about the “Fold increase … to Chimeric Ab” value of the same binder?
The value was 6.8 fold.

What about the “Maximal downregulation (% Siglec-7 remaining)” value of the same binder?
Its value is 13.6%.

And the “Receptor downregulation, (EC50) (pM)” value?
The value was 152 pM.

Which results are given for B14?
Fold increase in potency compared to AB-H8: 2.6 fold; Fold increase in potency compared to Chimeric Ab: 8 fold; Maximal downregulation (% Siglec-7 remaining): 4.3%; Receptor downregulation, (EC50) (pM): 129 pM

How did the “Fold increase … to AB-H8” value turn out when B15 was run?
Its value is 3.7 fold.

What about the “Fold increase … to Chimeric Ab” value of the same binder?
The value was 11.2 fold.

What about the “Maximal downregulation (% Siglec-7 remaining)” value of the same binder?
Its value is 3.4%.

What about the “Receptor downregulation, (EC50) (pM)” value of the same binder?
Its value is 91.3 pM.

What does the source list for B16?
Fold increase in potency compared to AB-H8: 2.4 fold; Fold increase in potency compared to Chimeric Ab: 7.2 fold; Maximal downregulation (% Siglec-7 remaining): 10.5%; Receptor downregulation, (EC50) (pM): 143 pM
